Data: article doi:10.1101/2021.12.19.473342

Biological target: BrxR from Escherichia fergusonii ATCC 35469 plasmid pEFER (Escherichia fergusonii ATCC 35469)
Assay: SEC

“BrxR from Escherichia fergusonii ATCC 35469 plasmid pEFER (natural protein)” gave a stoichiometry N of 2.
